{
  "source": "patent US20210238276A1",
  "about": "(INTEGRAL MOLECULAR, published 2021)",
  "assay_in_all_cases": "flow cytometry, alanine-scan library in HEK-293T, with cytochalasin B",
  "key": {"[1]": {"target": "T1, hsGLUT4 Q295A (human, UniProt P14672 1-509)", "T1 sequence": "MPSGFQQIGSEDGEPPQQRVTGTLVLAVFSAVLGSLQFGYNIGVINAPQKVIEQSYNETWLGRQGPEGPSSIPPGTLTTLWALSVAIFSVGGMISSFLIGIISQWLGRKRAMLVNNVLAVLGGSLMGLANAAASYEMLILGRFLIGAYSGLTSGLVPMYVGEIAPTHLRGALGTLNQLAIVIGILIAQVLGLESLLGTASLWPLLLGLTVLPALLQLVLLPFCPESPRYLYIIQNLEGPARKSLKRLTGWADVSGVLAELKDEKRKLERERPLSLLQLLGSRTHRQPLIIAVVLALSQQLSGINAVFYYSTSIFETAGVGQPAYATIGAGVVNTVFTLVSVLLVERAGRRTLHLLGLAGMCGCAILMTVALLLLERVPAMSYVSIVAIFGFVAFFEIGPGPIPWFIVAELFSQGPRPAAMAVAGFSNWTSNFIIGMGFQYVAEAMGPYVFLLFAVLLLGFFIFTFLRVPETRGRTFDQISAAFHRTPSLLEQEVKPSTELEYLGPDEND", "outline": "(§1)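 HEK-293T cells expressing individual GLUT4 alanine mutants were stained 48 h post-transfection with anti-GLUT4 scFv MAbs (2 μg/ml), then biotinylated secondary and streptavidin-PerCP, and read by high-throughput flow cytometry. Where used, cytochalasin B (10 uM final) was given for 30 min before and during primary antibody staining.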"}, "[2]": {"target": "T2, hsGLUT4 F307A (human, UniProt P14672 1-509)", "T2 sequence": "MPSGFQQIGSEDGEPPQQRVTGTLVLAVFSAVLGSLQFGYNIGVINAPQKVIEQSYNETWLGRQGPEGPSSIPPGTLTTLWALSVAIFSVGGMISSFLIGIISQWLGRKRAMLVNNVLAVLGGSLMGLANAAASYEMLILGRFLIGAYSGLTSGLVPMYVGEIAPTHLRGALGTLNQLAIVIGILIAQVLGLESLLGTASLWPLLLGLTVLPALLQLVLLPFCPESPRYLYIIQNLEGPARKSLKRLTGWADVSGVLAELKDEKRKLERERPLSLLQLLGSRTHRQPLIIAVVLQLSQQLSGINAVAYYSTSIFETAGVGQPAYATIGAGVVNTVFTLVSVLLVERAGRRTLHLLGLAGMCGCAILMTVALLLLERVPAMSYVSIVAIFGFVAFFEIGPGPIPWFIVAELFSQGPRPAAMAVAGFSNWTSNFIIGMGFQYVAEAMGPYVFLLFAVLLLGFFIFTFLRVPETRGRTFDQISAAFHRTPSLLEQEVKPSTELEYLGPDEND", "outline": "as §1"}, "[3]": {"target": "T3, hsGLUT4 R265A (human, UniProt P14672 1-509)", "T3 sequence": "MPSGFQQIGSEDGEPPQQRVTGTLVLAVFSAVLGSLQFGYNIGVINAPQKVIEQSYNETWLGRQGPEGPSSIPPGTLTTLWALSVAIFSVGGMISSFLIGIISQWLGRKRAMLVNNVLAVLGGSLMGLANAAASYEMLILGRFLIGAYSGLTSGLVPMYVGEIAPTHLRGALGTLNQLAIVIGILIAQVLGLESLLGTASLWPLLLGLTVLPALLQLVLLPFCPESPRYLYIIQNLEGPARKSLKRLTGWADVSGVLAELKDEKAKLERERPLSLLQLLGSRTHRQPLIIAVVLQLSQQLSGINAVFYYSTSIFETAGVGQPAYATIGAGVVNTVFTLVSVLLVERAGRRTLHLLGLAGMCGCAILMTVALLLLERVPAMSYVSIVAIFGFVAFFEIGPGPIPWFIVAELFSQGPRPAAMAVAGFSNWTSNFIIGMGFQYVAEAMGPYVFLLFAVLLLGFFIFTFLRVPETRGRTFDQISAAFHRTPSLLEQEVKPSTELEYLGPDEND", "outline": "as §1"}, "[4]": {"target": "T4, hsGLUT4 G446A (human, UniProt P14672 1-509)", "T4 sequence": "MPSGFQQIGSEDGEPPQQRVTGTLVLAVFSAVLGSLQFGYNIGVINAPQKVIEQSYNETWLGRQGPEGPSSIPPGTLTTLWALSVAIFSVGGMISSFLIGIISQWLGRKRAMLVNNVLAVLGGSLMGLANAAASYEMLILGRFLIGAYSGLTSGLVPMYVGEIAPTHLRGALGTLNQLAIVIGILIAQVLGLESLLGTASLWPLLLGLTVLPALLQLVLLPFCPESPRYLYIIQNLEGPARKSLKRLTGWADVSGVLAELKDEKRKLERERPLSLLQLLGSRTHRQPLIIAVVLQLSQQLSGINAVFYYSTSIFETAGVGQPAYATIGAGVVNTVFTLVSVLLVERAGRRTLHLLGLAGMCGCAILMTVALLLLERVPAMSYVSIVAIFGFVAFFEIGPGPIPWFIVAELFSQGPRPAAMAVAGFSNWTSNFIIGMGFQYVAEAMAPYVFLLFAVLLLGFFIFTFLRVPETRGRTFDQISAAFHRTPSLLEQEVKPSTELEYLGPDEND", "outline": "as §1"}},
  "data": [
    {"binder": "AB102 (Fc fusion, also called MAb AB102; not shown: Fc fragment of human IgG1, cloned in frame with the scFv) scFv: ALTQPSSVSANLGGTVKITCSGGGSYGYGWYQQKSPGSAPVTVIYSNDQRPSDIPSRFSGSKSGSTATLTITGVRAEDEAIYYCGSTDSDYVGIFGAGTTLTVLGQSSRSSGGGGSSGGGGSAVTLDESGGGLQTPGGTLSLVCKASGFDFSSYATIWVRQAPGKGLEWVAGISGTGTGSSTGYAPAVKGRATISRDNGQSTVRLQLNNLRAEDTGSYFCAKSTGYGDSWIYPDSIDAWGHGTEVIVSS", "values": [
      {"measurement": "% of binding to wild type GLUT4", "setting": "[1]", "result": 89, "unit": "%"},
      {"measurement": "% of binding to wild type GLUT4", "setting": "[2]", "result": 22, "unit": "%"},
      {"measurement": "% of binding to wild type GLUT4", "setting": "[3]", "result": -5, "unit": "%"},
      {"measurement": "% of binding to wild type GLUT4", "setting": "[4]", "result": 43, "unit": "%"}
    ]}
  ]
}
